How the values were obtained:
[1] = target: STC2(C120A), human stanniocalcin 2 with cysteine 120 replaced by alanine, C-terminally myc-his-tagged
[2] = target: recombinant human stanniocalcin 1, C-terminally myc-his-tagged
[3] = target: recombinant human stanniocalcin 2, C-terminally myc-his-tagged

B1: murine PAPP-A2 (protein)
chain: QNGGGASLRRVETFNSQGGLPVLYFTGKRERLLLRPEVLAEIPREAFTVEAWVRPEGGQSNPAIIAGVFDNCSHTVNDKGWALGIRSGKDKGWRDARFFFSLRTDRMKKATIVTGHSRYQPGMWTHVAATYDGQHTALYVDGTRVASSRDQFGPLNSPFMASCRSLILGGDSSEDGHYFRGYLGTLVIWSTALSQTHLQHSPLHPSAADELTTLILTATFDPLMEQWAPFRDDLYPRLEVLQDSESQPEILSPLQPPPCGQTACDNVELISQYNKHGPLRREKVIRYQVVNIYDDEGLHPIVSDHQIRRQHEALNQAFSRYNISWQLSVHRVHNSTLRHRVVLVNCEPSKIGNDHCDPECEHPLTGFDGGDCRLQGRCYSWNRRDGLCHVECNNMLNDFDDGDCCDPEVTDVRKTCFDPDSPKRAYMSVKELKEALQLNSTHFLNVYFASSVREDLAGSATWPWDKEALSHLGGVVLNPTYYGMLGHTNIMIHEVGHVLGLYHVFKGVSERESCDDPCRETVPSMETGDLCADTAPTPKSKLCRDPEPANDTCGFTLFPGAPFNNYMSYTDDECTDNFTPNQVARMHCYLDLVYQQWSESQKPTPIPIPPMVIGQTHKSLTIHWLPPISGVVYDRAPDSMCSACTEDGTFRQYVYKASSGRVCDSSGYWTPEEAVGPPDVDQPCEPSLQAWSPELHLNHMNMTVPCPAEGCSLELLFQYPVQADTLTLWVTYLSMNSSKAFFDIEILLEHKKSMHLGPLNTFCDIPLTIKLHMDEKVMGAKVYTFDERMEIDAALLTSRPNSSLCSGCKPMSYQVLREPPFSSGLPMVVTHPHRKFTDTEVIPGQMYQYQVQAEAVGELGEASPPLSHIHGGPYCGDGKVERSIGEMCDDGDLLNGDGCSRACELEEGFNCAGEPSLCYRYEGDGVCEDFEKESIITDCGLHTPEGYLDQWASQAYSYHEDKEKCPVSLVTGEPHSMICTSWHPDSSPYHSFPGWFPCVFSLKKDQDAGSEQAKDSLQKDNEIWLEVCFNRPGVAVAIYIFLASDGVTPGEHQQATVTLYLIDVSGSNHSLGTYGLSCQQNPLVINVSHHVNVYPQHTSSMLLNFSSPLVGISAVALRTSSQTSSSAPSNCIPEQNYEGKSCAQRPCGEQGRCAPLLLDHTDMVNCTSSSPGHMECAITCQRGYVLQTSSGQYLRNMQKEILLTCSSGHWDKDVICKRLDCGVPDSSLVNYANFSCLEGTDFLKQCSISCVPPAKLQGLNPWLTCLEDGLWSLPEVYCKLECEAPPVIPNANLLLPHFLEGNHDVGTICKYECKPGYYVKETSGSQGKNKFLKIQCLDDGSWEQGSCVPVVCEPPPPVFEGMYECTDGFKLDSQCVLNCNQETEGIPILCTKEGLWTQEFKLCENLQGECPPPTSELNSVEYKCGQGYGIGAVCSPSCVIPPSDPVILPENVTTDTLEHWMEPVKVQSIVCTGRRQWHPDPSLVHCIQSCEPFQADGWCDTINNRAYCNYDGGDCCSSTLSSKKVIPFAADCDLDECTCRDPKAEENQ
proteolytic activity of murine PAPP-A2 towards radiolabeled IGFBP-5 [1]: Murine PAPP-A and PAPP-A2 are inhibited by STC1 and STC2, but not STC2(C120A)
proteolytic activity of murine PAPP-A2 towards radiolabeled IGFBP-5 [2]: Murine PAPP-A and PAPP-A2 are inhibited by STC1 and STC2, but not STC2(C120A)
proteolytic activity of murine PAPP-A2 towards radiolabeled IGFBP-5 [3]: Murine PAPP-A and PAPP-A2 are inhibited by STC1 and STC2, but not STC2(C120A)
